Test results published in patent publication US20130330359A1 (AbbVie / Abbott, published 2013).
Residue numbers refer to the chain shown, from its start.

T1: carrier free RGMa (R&D Systems) (UniProt Q96B86 48-422, limits assumed)
T1 construct: also called RGMa-CF
T1 sequence (looked up): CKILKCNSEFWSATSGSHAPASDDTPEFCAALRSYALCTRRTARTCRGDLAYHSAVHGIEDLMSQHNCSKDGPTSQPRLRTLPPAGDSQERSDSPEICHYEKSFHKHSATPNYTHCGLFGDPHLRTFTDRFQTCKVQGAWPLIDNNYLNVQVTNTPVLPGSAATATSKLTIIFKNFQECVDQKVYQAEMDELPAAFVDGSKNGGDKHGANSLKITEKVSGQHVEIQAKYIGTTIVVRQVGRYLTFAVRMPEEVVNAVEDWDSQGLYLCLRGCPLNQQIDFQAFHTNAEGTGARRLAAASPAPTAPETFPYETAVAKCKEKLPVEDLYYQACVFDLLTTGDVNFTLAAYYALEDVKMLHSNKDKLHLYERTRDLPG

T2: carrier free RGMb (R&D Systems) (UniProt Q6NW40 46-413, limits assumed)
T2 construct: also called RGMb-CF
T2 sequence (looked up): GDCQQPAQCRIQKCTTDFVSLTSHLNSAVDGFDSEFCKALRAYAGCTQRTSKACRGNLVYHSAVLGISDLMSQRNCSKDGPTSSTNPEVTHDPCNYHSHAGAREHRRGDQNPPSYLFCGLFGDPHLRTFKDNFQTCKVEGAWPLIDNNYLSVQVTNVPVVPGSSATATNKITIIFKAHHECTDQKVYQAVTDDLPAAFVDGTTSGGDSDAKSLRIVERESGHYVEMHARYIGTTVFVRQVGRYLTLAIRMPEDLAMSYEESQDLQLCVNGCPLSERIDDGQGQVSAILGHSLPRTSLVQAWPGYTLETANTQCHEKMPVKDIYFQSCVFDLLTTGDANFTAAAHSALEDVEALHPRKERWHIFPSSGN

T3: RGMc antigen: amino acids 33-391 of RGMc followed by human Fc (human, UniProt Q6ZVN8 33-391)
T3 construct: also called RGMc-huFc; RGMc-Fc; not shown: human Fc
T3 sequence: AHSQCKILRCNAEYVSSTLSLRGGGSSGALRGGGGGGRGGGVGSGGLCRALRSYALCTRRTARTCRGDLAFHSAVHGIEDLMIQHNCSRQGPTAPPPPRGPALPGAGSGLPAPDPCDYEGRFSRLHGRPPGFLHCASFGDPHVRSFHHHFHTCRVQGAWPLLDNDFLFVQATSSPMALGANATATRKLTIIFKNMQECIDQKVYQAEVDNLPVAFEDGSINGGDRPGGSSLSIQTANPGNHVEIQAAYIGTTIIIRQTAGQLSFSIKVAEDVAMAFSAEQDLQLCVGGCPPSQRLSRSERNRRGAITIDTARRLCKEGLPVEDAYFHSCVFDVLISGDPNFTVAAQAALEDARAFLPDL

B1: 1A-2860-475 (antibody, V domains shown)
VH: DVLLQESGPDLVKPSQSLSLTCTVTGYSISSGYSWHWIRQFPGNKLEWMAYIHYTGNTNYNPSLKSRISITRDTSKNQFFLHLNSVTTEDTATYYCALFGLSGFWGQGTLVTVSA
VL: DVLMTQTPLSLPVSLGDQASISCRSSQTIVHSNGNTYLDWYLQKPGQSPKVLIYKVSNRFSGVPDRFSGSGSGTDFTLKISRVEAEDLGVYFCLQGSHVPWTFGGGTQLEIKR
notes: The parent line 1A-2860 and subclone 1A-2860-177 used in the assays are treated here as the same antibody; also called 1A-2860-177
B2: 1B-3363-715 (antibody, V domains shown)
VH: DVQLQESGPDLVKPSQSLSLTCTVTGYSITSGYSWHWIRQFPGNKLEWMGYIHYSGNTDYNPSLKSRISFTRDTSKNQFFLQLNSVTTEDTATYFCAIGTGPWGQGTTLTVSS
VL: B1 VL with T28N, N35H, D39E, V51L, F92Y, L94F, Q108K
notes: The parent line 1B-3363 and subclone 1B-3363-502 used in the assays are treated here as the same antibody; also called 1B-3363-502
B3: 1A-2989-187 (antibody, V domains shown)
VH: EVQLQQSGAELVRSGASVKLSCTASGFNIRDFYIHWVKQRPEQGLEWLGWIDPENGDIEYAPKFQGKATMTADTSSNTAYLQLNSLTSEDTALYYCNGNGYYLDYWGQGTTLTVSS
VL: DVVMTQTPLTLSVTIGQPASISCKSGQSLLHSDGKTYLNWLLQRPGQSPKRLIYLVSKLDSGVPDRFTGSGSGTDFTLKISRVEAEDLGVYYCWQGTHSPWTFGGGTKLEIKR

What follows are binders tested against T1, carrier free RGMa (R&D Systems) (assay: EIA on coated carrier-free RGMa (summary of specificity)).
Description: (§1) Clones were then tested for cross-reactivity with RGMa and RGMb by EIA. Carrier free RGMa, RGMb, or RGMc (R&D Systems) was coated on the solid phase of micro-titer EIA plates at 0.5 ug/mL. After the antigen had been coated on the solid phase, it was removed and any open binding sites on the plates were blocked using fish gel block solution. The wells were washed with distilled water following this incubation. Cell supernatants and control reagents were added to the blocked plates and allowed to incubate at room temperature for at least one hour. The negative control was a purified mouse mAb from a different antigen system. The positive control for RGMa, RGMb, & RGMc was a goat anti-RGMa, RGMb, or RGMc polyclonal antibody (R&D Systems). Following this incubation, the solutions were removed from the plates and they were washed with distilled water. Donkey anti-Goat IgG-HRPO diluted to approximately 200 ng/mL in block solution was added to the plates with the positive control test samples and goat anti-mouse IgG-HRPO (Jackson Immunoresearch) diluted to approximately 200 ng/mL in block solution was added to the plates with the fusion #1 test samples. All plates were allowed to incubate for 30 minutes at room temperature. The plates were washed with distilled water and o-phenylenediamine substrate was used as the chromogen to generate signal. Plates were read at 492 nm and the results were analyzed.

binding result	Binder
no binding	B1
no binding	B2
no binding	B3

Each binder was assayed against T2, carrier free RGMb (R&D Systems) (assay: EIA on coated carrier-free RGMb (summary of specificity)).
Description: as §1

binding result	Binder
no binding	B1
no binding	B2
no binding	B3

Each binder was assayed against T2, carrier free RGMb (R&D Systems) (assay: direct EIA: carrier-free RGMb coated at 0.5 ug/mL; supernatant diluted 1:125; goat anti-mouse IgG-HRPO).
Description: as §1

absorbance at 492 nm	Binder
0.06	B1
0.09	B2
0.07	B3

What follows are binders tested against T3, RGMc antigen: amino acids 33-391 of … (assay: direct EIA: RGMc-huFc coated at 1.0 ug/mL; supernatant diluted 1:125; goat anti-mouse IgG Fc-HRPO).
Description: (§2) A mouse:human chimeric antibody or RGMc-huFc was coated on the solid phase of micro-titer EIA plates at 1.0 ug/mL. After the antigen had been coated on the solid phase, it was removed and any open binding sites on the plates were blocked using BSA block solution. The wells were washed with distilled water. Cell supernatants and control reagents were added to the blocked plates and allowed to incubate at room temperature for at least one hour. The negative control was a purified mAb from a different antigen system. The positive control for human IgG was a purified anti-hu IgG mAb developed against another antigen containing human IgG Fc carrier protein. The RGMc positive control is Novus mab 1C12. Following this incubation, the solutions were removed from the plates and they were washed with distilled water. Goat anti-mouse IgG Fc-HRPO (Jackson Immunoresearch) diluted to approximately 200 ng/mL in block solution was added to the plates and allowed to incubate for 30 minutes at room temperature. The plates were washed with distilled water and o-phenylenediamine substrate (Abbott Laboratories) was used as the chromogen to generate signal. Plates were read at 492 nm and the results were analyzed.

absorbance at 492 nm	Binder
1.66	B1
2.8	B2
1.55	B3

Each binder was assayed against T4, mouse:human chimeric antibody (used as human IgG / human IgG Fc antigen) (assay: direct EIA: mouse:human chimeric antibody coated at 1.0 ug/mL; supernatant diluted 1:125; goat anti-mouse IgG Fc-HRPO).
T4 construct: also called Hu IgG; human IgG Fc portion
Description: as §2

absorbance at 492 nm	Binder
0.06	B1
0.07	B2
0.06	B3

What follows are binders tested against T1, carrier free RGMa (R&D Systems) (assay: direct EIA: carrier-free RGMa coated at 0.5 ug/mL; supernatant diluted 1:125; goat anti-mouse IgG-HRPO).
Description: as §1

absorbance at 492 nm	Binder
0.08	B1
0.09	B2
0.07	B3
